From PMC9482650, “Quantitative fragmentomics allow affinity mapping of interactomes” (Nature Communications, 2022)

T1: LNX2_4, Q8N448
T1 sequence (Q8N448 595-690, limits assumed, looked up): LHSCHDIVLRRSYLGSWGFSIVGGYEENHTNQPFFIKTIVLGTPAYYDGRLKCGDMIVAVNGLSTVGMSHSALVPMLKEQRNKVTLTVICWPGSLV

T2: MLLT4, P55196
T2 sequence (P55196 1002-1103, limits assumed, looked up): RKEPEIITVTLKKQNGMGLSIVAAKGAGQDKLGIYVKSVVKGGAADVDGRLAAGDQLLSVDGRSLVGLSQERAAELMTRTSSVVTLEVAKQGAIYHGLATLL

T3: MPDZ_11, O75970
T3 sequence (O75970 1720-1817, limits assumed, looked up): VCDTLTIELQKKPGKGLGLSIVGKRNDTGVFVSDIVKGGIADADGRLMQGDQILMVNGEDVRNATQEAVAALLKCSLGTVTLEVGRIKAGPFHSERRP

T4: MPDZ_13, O75970
T4 sequence (O75970 1982-2070, limits assumed, looked up): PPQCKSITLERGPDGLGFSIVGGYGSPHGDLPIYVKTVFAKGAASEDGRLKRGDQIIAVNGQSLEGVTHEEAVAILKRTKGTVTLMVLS

T5: NHERF3_2, Q5T2W1
T5 sequence (Q5T2W1 129-225, limits assumed, looked up): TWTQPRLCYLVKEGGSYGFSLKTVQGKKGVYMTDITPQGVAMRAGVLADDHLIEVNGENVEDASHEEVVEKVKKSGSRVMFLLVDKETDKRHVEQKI

T6: PARD6G, Q9BYG4
T6 sequence (Q9BYG4 153-261, limits assumed, looked up): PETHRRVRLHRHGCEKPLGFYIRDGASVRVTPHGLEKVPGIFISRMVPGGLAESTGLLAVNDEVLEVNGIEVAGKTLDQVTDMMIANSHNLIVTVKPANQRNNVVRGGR

T7: PDLIM3, Q53GG5
T7 sequence (Q53GG5 1-94, limits assumed, looked up): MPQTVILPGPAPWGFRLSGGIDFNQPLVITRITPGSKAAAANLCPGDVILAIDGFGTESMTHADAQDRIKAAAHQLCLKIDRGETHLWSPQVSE

T8: PDZD11, Q5EBL8
T8 sequence (Q5EBL8 42-139, limits assumed, looked up): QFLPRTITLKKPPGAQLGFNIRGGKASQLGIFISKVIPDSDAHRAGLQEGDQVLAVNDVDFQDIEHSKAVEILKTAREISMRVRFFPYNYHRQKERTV

T9: PDZD2_6, O15018
T9 sequence (O15018 2745-2839, limits assumed, looked up): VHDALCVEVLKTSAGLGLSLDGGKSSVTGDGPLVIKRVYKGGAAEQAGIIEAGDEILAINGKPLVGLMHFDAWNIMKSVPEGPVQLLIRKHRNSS

T10: PDZD4, Q76G19
T10 sequence (Q76G19 125-224, limits assumed, looked up): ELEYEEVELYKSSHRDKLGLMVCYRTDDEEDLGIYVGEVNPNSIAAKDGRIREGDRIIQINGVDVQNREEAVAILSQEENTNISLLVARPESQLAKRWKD

T11: SHANK3, Q9BYB0
T11 sequence (Q9BYB0 641-750, limits assumed, looked up): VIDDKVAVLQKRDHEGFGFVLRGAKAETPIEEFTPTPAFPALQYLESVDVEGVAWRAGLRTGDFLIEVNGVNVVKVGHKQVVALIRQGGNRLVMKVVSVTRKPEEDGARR

T12: TJP3_1, O95049
T12 sequence (O95049 6-103, limits assumed, looked up): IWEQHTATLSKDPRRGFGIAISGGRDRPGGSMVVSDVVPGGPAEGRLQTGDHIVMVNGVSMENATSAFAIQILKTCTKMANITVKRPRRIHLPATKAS

T13: USH1C_1, Q9Y6N9
T13 sequence (Q9Y6N9 82-179, limits assumed, looked up): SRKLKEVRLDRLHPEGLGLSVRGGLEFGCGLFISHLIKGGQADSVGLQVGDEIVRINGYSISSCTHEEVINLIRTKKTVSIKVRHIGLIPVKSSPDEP


How the values were obtained:
Experiment in all cases: holdup assay
Set-up in all cases: key: below the threshold = too weak to quantify, mostly under pKd 3.1 to 4
LIMK1, P53667 = molecular target: LIMK1, P53667
LNX2_4, Q8N448 = molecular target: T1, LNX2_4, Q8N448
MAGI3_5, Q5TCQ9 = molecular target: MAGI3_5, Q5TCQ9
MLLT4, P55196 = molecular target: T2, MLLT4, P55196
MPDZ_11, O75970 = molecular target: T3, MPDZ_11, O75970
MPDZ_13, O75970 = molecular target: T4, MPDZ_13, O75970
NHERF3_2, Q5T2W1 = molecular target: T5, NHERF3_2, Q5T2W1
O60759 = conditions: plain residues with an end cap or a label only (N-terminal biotin on a linker: ttds)
PARD6G, Q9BYG4 = molecular target: T6, PARD6G, Q9BYG4
PDLIM3, Q53GG5 = molecular target: T7, PDLIM3, Q53GG5
PDZD11, Q5EBL8 = molecular target: T8, PDZD11, Q5EBL8
PDZD2_6, O15018 = molecular target: T9, PDZD2_6, O15018
PDZD4, Q76G19 = molecular target: T10, PDZD4, Q76G19
PDZD9, Q8IXQ8 = molecular target: PDZD9, Q8IXQ8
PTPN13_2, Q12923 = molecular target: PTPN13_2, Q12923
Q96HC4 = conditions: plain residues with an end cap or a label only (N-terminal biotin on a linker: ttds)
Q96SB3 = conditions: plain residues with an end cap or a label only (N-terminal biotin on a linker: ttds)
Q9Y3R0 = conditions: plain residues with an end cap or a label only (N-terminal biotin on a linker: ttds)
RGS3, P49796-9 = molecular target: RGS3, P49796-9
SHANK3, Q9BYB0 = molecular target: T11, SHANK3, Q9BYB0
TJP3_1, O95049 = molecular target: T12, TJP3_1, O95049
USH1C_1, Q9Y6N9 = molecular target: T13, USH1C_1, Q9Y6N9
LNX1_4, Q8TBB1 = molecular target: LNX1_4, Q8TBB1
[1] = plain residues with an end cap or a label only (N-terminal biotin on a linker: ttds)
[2] = plain residues with an end cap or a label only (N-terminal biotin on a linker: none)

Sequence of LNX1_4, Q8TBB1 (Q8TBB1 631-726): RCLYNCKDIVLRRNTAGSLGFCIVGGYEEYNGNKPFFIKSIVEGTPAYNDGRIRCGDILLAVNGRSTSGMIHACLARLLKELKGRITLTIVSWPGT
Sequence of RGS3, P49796-9 (P49796 other isoform, or with tags, fused parts or gaps): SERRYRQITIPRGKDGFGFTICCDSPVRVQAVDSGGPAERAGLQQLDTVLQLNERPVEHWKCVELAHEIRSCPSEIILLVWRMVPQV
Sequence of PTPN13_2, Q12923 (Q12923 1363-1462): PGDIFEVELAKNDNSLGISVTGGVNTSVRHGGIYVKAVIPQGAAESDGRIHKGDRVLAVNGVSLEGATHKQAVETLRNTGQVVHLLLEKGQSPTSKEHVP
Sequence of LIMK1, P53667 (P53667 155-268): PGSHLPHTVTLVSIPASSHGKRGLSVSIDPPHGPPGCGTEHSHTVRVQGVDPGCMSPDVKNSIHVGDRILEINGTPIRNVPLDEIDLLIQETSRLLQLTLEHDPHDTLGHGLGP
Sequence of PDZD9, Q8IXQ8 (Q8IXQ8 23-120): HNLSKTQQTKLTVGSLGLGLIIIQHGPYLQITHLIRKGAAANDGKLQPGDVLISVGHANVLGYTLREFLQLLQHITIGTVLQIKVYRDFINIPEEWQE
Sequence of MAGI3_5, Q5TCQ9 (Q5TCQ9 847-941): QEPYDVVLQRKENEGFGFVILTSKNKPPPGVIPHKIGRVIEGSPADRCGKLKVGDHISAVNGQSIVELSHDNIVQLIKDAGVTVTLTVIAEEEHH

Row | Binder | pKd (LIMK1, P53667; [1]) | pKd (LNX2_4, Q8N448; [1]) | pKd (MAGI3_5, Q5TCQ9; [1]) | pKd (MLLT4, P55196; [1]) | pKd (MPDZ_11, O75970; [1]) | pKd (MPDZ_13, O75970; [1]) | pKd (NHERF3_2, Q5T2W1; [1]) | pKd (O60759) | pKd (PARD6G, Q9BYG4; [1]) | pKd (PDLIM3, Q53GG5; [1]) | pKd (PDZD11, Q5EBL8; [1]) | pKd (PDZD2_6, O15018; [1]) | pKd (PDZD4, Q76G19; [1]) | pKd (PDZD9, Q8IXQ8; [1]) | pKd (PTPN13_2, Q12923; [1]) | pKd (Q96HC4) | pKd (RGS3, P49796-9; [1]) | pKd (SHANK3, Q9BYB0; [1]) | pKd (TJP3_1, O95049; [1]) | pKd (USH1C_1, Q9Y6N9; [1]) | also measured
1 | RLPKIKETTV [FRMPD4, Q14CM0] | 4.48 | below the threshold | below the threshold | below the threshold | below the threshold | below the threshold | below the threshold | below the threshold | below the threshold | 4.24 | below the threshold | below the threshold | below the threshold | below the threshold | 4.31 | below the threshold | below the threshold | below the threshold | below the threshold | below the threshold | pKd (Q96SB3): below the threshold; pKd (Q9Y3R0): below the threshold
2 | NLNSSRVPDLLV [SARS-CoV2-E, P0DTC4] | – | – | – | – | – | – | – | – | – | – | – | – | – | – | – | – | – | – | – | – | pKd (LIMK1, P53667; [2]): below the threshold; pKd (LNX1_4, Q8TBB1; [2]): below the threshold; pKd (LNX2_4, Q8N448; [2]): below the threshold; pKd (MAGI3_5, Q5TCQ9; [2]): below the threshold; pKd (MLLT4, P55196; [2]): 4.1; pKd (MPDZ_11, O75970; [2]): below the threshold; pKd (MPDZ_13, O75970; [2]): below the threshold; pKd (NHERF3_2, Q5T2W1; [2]): below the threshold; pKd (PARD6G, Q9BYG4; [2]): below the threshold; pKd (PDLIM3, Q53GG5; [2]): below the threshold; pKd (PDZD11, Q5EBL8; [2]): below the threshold; pKd (PDZD2_6, O15018; [2]): 4.07; pKd (PDZD4, Q76G19; [2]): below the threshold; pKd (PDZD9, Q8IXQ8; [2]): 3.94; pKd (PTPN13_2, Q12923; [2]): below the threshold; pKd (RGS3, P49796-9; [2]): below the threshold; pKd (SHANK3, Q9BYB0; [2]): 3.83; pKd (TJP3_1, O95049; [2]): below the threshold; pKd (USH1C_1, Q9Y6N9; [2]): below the threshold
3 | SGSRPSATVV [HPV73-E6, Q82005] | below the threshold | below the threshold | below the threshold | below the threshold | below the threshold | below the threshold | below the threshold | – | below the threshold | below the threshold | below the threshold | below the threshold | below the threshold | below the threshold | below the threshold | – | below the threshold | below the threshold | 4.21 | below the threshold | –
4 | RPLPRKVSQL [DOCK4, Q8N1I0] | – | below the threshold | below the threshold | below the threshold | below the threshold | below the threshold | below the threshold | below the threshold | below the threshold | below the threshold | below the threshold | below the threshold | below the threshold | below the threshold | below the threshold | below the threshold | below the threshold | below the threshold | below the threshold | below the threshold | pKd (Q96SB3): below the threshold; pKd (Q9Y3R0): below the threshold
5 | RLQRRRETQV [HPV18-E6, P06463] | below the threshold | below the threshold | below the threshold | below the threshold | below the threshold | below the threshold | below the threshold | – | below the threshold | below the threshold | below the threshold | below the threshold | below the threshold | below the threshold | below the threshold | – | below the threshold | below the threshold | below the threshold | below the threshold | pKd (LNX1_4, Q8TBB1; [1]): 4.03
6 | SKPTRRETEV [HPV35-E6, P27228] | – | – | below the threshold | 3.79 | below the threshold | 3.77 | below the threshold | – | below the threshold | below the threshold | below the threshold | below the threshold | 3.55 | below the threshold | below the threshold | – | below the threshold | below the threshold | below the threshold | below the threshold | pKd (LNX1_4, Q8TBB1; [1]): 3.49
